The target of test [1] is T1, ERRgamma ligand-binding domain (LBD) (Homo sapiens, UniProt P62508).
T1 sequence (P62508 233-457 limits assumed): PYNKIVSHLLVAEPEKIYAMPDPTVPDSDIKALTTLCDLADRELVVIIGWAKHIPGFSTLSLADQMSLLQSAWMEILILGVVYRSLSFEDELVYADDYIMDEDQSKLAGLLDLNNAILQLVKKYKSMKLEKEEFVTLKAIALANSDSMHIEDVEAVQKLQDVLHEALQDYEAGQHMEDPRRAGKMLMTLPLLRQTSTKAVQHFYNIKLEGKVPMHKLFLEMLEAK
Particulars: cited from earlier work; for interaction with ERRgamma: in the absence of ligand.

Test [2] deals with T2, ERα (Homo sapiens, UniProt P03372).
T2 sequence (P03372 1-595): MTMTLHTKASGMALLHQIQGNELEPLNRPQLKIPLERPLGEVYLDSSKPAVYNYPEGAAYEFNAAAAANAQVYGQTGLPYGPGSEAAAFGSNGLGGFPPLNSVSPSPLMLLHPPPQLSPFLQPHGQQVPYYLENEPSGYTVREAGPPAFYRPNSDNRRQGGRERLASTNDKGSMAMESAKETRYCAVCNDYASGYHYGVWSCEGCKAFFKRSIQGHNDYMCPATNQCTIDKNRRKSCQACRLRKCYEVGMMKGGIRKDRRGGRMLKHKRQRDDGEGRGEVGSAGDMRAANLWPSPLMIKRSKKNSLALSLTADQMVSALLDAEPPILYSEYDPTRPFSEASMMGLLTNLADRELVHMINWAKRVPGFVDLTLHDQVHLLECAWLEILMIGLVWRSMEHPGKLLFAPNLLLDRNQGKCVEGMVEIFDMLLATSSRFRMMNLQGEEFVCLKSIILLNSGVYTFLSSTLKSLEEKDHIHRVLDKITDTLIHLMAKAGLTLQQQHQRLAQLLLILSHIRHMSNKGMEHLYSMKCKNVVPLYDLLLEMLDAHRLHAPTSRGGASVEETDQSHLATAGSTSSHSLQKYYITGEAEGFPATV
The settings on record: inhibition of estrogen receptor/coactivator recognition, cited from earlier work; for Ki: read-out: K, values ERα.

In the next test the target is ERβ (Homo sapiens, UniProt Q92731). The settings on record: cited from earlier work; for Ki: inhibition of estrogen receptor/coactivator recognition, read-out: K, values ERβ; for ERβ/ERα: ratio of K values.
Sequence of ERβ (Q92731 whole entry, species assumed): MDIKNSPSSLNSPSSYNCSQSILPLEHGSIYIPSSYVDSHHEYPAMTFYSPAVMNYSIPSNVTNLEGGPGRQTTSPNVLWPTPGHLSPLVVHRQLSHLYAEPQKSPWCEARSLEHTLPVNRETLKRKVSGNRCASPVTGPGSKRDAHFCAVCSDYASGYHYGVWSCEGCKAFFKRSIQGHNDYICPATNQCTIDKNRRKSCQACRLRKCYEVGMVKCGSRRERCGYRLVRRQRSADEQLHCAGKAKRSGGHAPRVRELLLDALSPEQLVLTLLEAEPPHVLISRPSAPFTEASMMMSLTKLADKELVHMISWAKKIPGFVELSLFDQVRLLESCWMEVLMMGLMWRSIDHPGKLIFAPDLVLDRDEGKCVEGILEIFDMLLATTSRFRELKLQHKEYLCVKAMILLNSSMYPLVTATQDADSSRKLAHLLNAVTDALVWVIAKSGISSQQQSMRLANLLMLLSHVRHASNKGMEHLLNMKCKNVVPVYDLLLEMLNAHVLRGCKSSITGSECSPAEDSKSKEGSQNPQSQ
Test [3] addresses T3, (Homo sapiens, UniProt P11474).
T3 sequence (P11474 1-423): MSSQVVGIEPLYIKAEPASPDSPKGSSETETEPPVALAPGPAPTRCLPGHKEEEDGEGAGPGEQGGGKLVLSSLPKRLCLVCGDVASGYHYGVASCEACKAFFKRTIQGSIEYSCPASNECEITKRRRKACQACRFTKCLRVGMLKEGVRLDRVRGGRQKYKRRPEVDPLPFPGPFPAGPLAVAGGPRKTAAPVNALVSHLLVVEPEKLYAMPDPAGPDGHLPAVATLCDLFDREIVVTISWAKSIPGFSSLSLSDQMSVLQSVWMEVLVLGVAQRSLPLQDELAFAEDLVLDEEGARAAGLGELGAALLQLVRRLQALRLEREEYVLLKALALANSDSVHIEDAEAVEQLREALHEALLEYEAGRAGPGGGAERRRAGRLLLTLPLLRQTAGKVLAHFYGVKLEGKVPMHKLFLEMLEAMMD
Particulars: phage display peptides; cited from earlier work.

Another test relates to mAb-E2. Particulars: cited from earlier work.
In test [4] the target is T2, ERα. Particulars: cited from earlier work.
For test [5] the following is noted: cited from earlier work.
Test [6] has as its target T4, native human ESRRG protein (Estrogen-receptor related receptor gamma) (human, UniProt P62508 229-458, limits assumed).
T4 construct: the screened protein is called 'native human ESRRG protein'; also called ESSRG; ERRγ
T4 sequence (looked up): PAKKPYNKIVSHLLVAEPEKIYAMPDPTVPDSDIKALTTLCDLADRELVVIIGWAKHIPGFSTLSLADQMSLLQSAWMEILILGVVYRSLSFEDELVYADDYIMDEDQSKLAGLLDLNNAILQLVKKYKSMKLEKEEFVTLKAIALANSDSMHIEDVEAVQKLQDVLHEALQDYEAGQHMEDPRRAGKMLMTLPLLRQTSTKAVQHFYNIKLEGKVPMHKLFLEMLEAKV
In words: custom peptide microarray density chip.

For test [7], the target named is T4, native human ESRRG protein …. The test can be described thus: peptide microarray, Iteration 1; bound ESRRG detected with fluorescent anti-ESRRG mAb. As for the experimental part: Screening was carried out typically by hybridization of the protein (1 μg/mL) against the array for 1 h at 4° C.; detection of bound protein was carried out using a fluorescently labeled anti-ESRRG mAb. (Direct labeling of ESRRG and alternative detection strategies are equally valid).
Daughter candidate ligands and their new Tier 3 and/or Tier 1 based combinations were synthesized in situ on an addressable peptide microarray and screened against native human ESRRG protein in order to determine sequences that bind to this protein. Bound protein was detected by a fluorescently labeled anti-ESRRG mAb. […] Excess (100×) competing biological matrices (human serum, HSA/BSA or bacterial protein extract) were used as backgrounds to select for specific ligands to the protein. Other competing proteins can be added to background for specificity selection and directed evolution of ligands.

A further test deals with T5, Annexin A5 (Homo sapiens (Human), UniProt P08758 2-320, directly labeled with a fluorescent tag (Cy 5 per paragraph 324; Cy3 per paragraph 57)).
T5 construct: also called ANXA5; ANX-A5
T5 sequence: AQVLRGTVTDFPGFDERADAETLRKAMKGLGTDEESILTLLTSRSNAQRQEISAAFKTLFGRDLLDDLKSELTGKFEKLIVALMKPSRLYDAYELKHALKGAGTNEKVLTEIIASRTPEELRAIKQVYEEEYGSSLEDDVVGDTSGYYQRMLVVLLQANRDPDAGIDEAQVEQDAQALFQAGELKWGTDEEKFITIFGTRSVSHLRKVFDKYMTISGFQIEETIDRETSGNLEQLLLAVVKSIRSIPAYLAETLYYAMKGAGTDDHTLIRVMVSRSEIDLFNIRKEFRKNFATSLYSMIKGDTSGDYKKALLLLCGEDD
The test can be described thus: peptide density-array chip.

Where no end group is shown, it is not given here. A value given as a limit tells only on which side of the number the result lay.

GPQTPQAQQKSLLQQLLTE [SRC1-4]: the “interaction with ERRgamma” value in test [1] was “interacted most strongly”.

For the molecule LTERHKILHRLLQEGSPSD [Structure 9], at ERα [2], the Ki is 700 nM. Also, on ERβ, the Ki is 5200 nM and the ERβ/ERα is given as 7.4.

As for KHKILHRLLQDSS [Structure 4], the Ki at ERα [2] was 380 nM; at ERβ, 6900 nM. Also, the ERβ/ERα on ERβ is recorded as 18.1.

On to “Mannosylacetyl-Leu-Glu-Gln-Leu-Leu-OH (Mannosylacetyl-LEQLL-OH) [Structure 2]”, for which the Ki with ERα [2] and with ERβ was > 200000 nM each time.

As for PSEDRGELWRLLSVTERQN [Peptide L3-09], in test [3], the “inhibition of transcriptional activity of EPPα” value (“inhibition” for short) is “reducing the transcriptional activity of EPPα to basal levels”.

In the case of 4-hydroxytamoxifen, the “displacement of fluorescein-labeled PGC1alpha peptide from the ERRgamma LBD” value in test [1] (increasing concentrations) is recorded as “displaced”.

Turning to IPLSGSELSRLLLTEMPEL [Peptide L3-80], the “inhibition” value in [3] was “reducing the transcriptional activity of EPPα to basal levels”.

As for EAEEPSLLKKLLLAPANTQ [PGC1alpha], the “interaction with ERRgamma” value in test [1] is on record as “interacted most strongly”.

As for “LEQLL [Structure 1, H-Leu-Glu-Gln-Leu-Leu-OH]”, on ERα [2], the “K, values ERα” value was “not active”. In addition, the Ki on ERβ was 201000 nM.

KKILHRLLQ [Structure 3]: the Ki at ERα [2] was 170 nM. Moreover, at ERβ, the Ki is 2800 nM and the ERβ/ERα is 16.5.

Turning to MSVQYPELQRLLMAGSTEL [Peptide L3-28], the “inhibition” value in test [3] is listed as “reducing the transcriptional activity of EPPα to basal levels”.

Usually IC50 stands for the concentration at which inhibition is half-maximal. As for VSWFFED [EMP-2], the IC50 is 30 nM in the test with mAb-E2 and 100000 nM at ERα [4]. The “estrogenic activity in vivo” value in test [5] is reported as “possess estrogenic activity in vivo”.

With LPYEGSLLLKLLRAPVEEV [Peptide D22], the “interaction with ERRgamma” value in [1] is “interacted most strongly”.

On to VSWFFE [EMP-1], for which the half-maximal inhibitory concentration (IC50) in the test on mAb-E2 is 6 nM; at ERα [4] it was 100000 nM. The “estrogenic activity in vivo” value in [5] is given as “possess estrogenic activity in vivo”.

Regarding QAQQKSLLQQLLTE [Structure 10], the Ki on ERα [2] is 450 nM. On ERβ, the Ki is 1100 nM and the ERβ/ERα was 2.4.

As a reminder, the Kd is the concentration at which binding is half-saturated. Molecule Ac-LLHSSKSQ showed an equilibrium dissociation constant (Kd) in test [6] of 28.3 nM. Also, in test [7], the “Sample B (Probe) Signal” value was 819 fluorescence intensity units and the “log2 (Sample B/Sample A)” value amounted to 5.4.

In test [6], Ac-LLHKSKSQ yielded a dissociation constant (Kd) of 28.5 nM. Moreover, in [7], the “Sample B (Probe) Signal” value was 962 fluorescence intensity units and the “log2 (Sample B/Sample A)” value worked out at 4.99.

Molecule Ac-ANNSRLLH gave a dissociation constant (Kd) in [6] of 28.9 nM. In [7], the “Sample B (Probe) Signal” value was 1480 fluorescence intensity units and the “log2 (Sample B/Sample A)” value was found to be 5.54.

For SERYWARY (Array-synthesised 8-mer), binding with Annexin A5 was put at a Kd of 91.7 nM.

On to SERYYARY (Array-synthesised 8-mer), for which the dissociation constant Kd with Annexin A5 is 361 nM.

SERYSARY (Array-synthesised 8-mer) displayed a Kd with Annexin A5 of 82.5 nM.

For SERYTARY (Array-synthesised 8-mer), the Kd with Annexin A5 came to 86.9 nM.

As to SERCYARY (Array-synthesised 8-mer), binding with Annexin A5 was characterised by a dissociation constant (Kd) of 301 nM.

Molecule SERCWARY (Array-synthesised 8-mer) yielded a Kd with Annexin A5 of 218 nM.

Ac-NIKVNANN gave a Kd in [6] of 17 nM. Moreover, in test [7], the “Sample B (Probe) Signal” value is 599 fluorescence intensity units and the “log2 (Sample B/Sample A)” value amounted to 7.62.

In the case of Ac-AANMFLLL, the affinity in test [6], expressed as Kd, was 29 nM. Further, in test [7], the “Sample B (Probe) Signal” value was 1750 fluorescence intensity units and the “log2 (Sample B/Sample A)” value is 5.37.

As for SERFFARY (Array-synthesised 8-mer), binding in the test with Annexin A5 was put at a Kd of 520 nM.

Take Ac-AIRGALMG: binding in [6] was characterised by a dissociation constant (Kd) of 27.4 nM. Further, in [7], the “Sample B (Probe) Signal” value is 851 fluorescence intensity units and the “log2 (Sample B/Sample A)” value was determined as 5.48.

With Ac-AIRLHLMG, binding in test [6] was put at a Kd of 22.4 nM. In test [7], the “Sample B (Probe) Signal” value was 943 fluorescence intensity units and the “log2 (Sample B/Sample A)” value was 5.07.

For AYLHHAAG (Array-synthesised 8-mer), in the test with Annexin A5, the dissociation constant Kd worked out at 87.6 nM.

In the test with Annexin A5, AYLHGAAG (Array-synthesised 8-mer) registered a Kd of 93.1 nM.

The molecule AYLMHAAG (Array-synthesised 8-mer) yielded an equilibrium dissociation constant (Kd) with Annexin A5 of 63 nM.

With AYLVHAAG (Array-synthesised 8-mer), the Kd with Annexin A5 came out at 92.2 nM.

Regarding AYLGYAAG (Array-synthesised 8-mer), in the test with Annexin A5, the Kd worked out at 24.5 nM.

Take AYLGHAAG (Array-synthesised 8-mer): the equilibrium dissociation constant (Kd) with Annexin A5 turned out to be 57.5 nM.

With AYLHYAAG (Array-synthesised 8-mer), the dissociation constant Kd with Annexin A5 is 21.9 nM.

These data come from patent US20130053541A1, “METHODS FOR DISCOVERING MOLECULES THAT BIND TO PROTEINS” (LYNNTECH, INC., priority 2011, published 2013).
